Consider one molecule from patent publication US20260055369A1 (H LEE MOFFITT CANCER CENTER AND RESEARCH INSTITUTE, published 2026).

Assay [1] concerns the target T1, hNotch4 (EGF7-12, residues 276-511), biotinylated (human, UniProt Q99466 276-511, Biotinylated in vitro by BirA at the C-terminal BAP-tag (tag not in the letters).).
T1 construct: Immobilised on a streptavidin chip for SPR; also called Notch4 (7-12)
T1 sequence: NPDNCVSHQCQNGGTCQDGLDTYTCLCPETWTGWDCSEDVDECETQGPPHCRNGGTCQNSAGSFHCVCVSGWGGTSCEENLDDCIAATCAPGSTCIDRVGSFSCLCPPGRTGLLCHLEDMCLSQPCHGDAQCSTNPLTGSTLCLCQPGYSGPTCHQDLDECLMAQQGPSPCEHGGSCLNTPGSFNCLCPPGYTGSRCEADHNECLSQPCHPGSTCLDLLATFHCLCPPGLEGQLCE
Kind of assay: SPR (Biacore T200), biotinylated Notch fragment on streptavidin chip, DLL4 protein (N-EGF5) in flow, 1:1 model. How it is done: (§1) The rapid dissociation of WT DLL4 precluded kinetic fitting of the binding data.
(§2) Equilibrium dissociation constants were determined by surface plasmon resonance using a Biacore T200 instrument (GE Healthcare). Approximately 100 resonance units (RU) of biotinylated Notch extracellular fragments (Notch1 (EGF6-13), Notch2 (EGF6-13), Notch3 (EGF5-12), Notch4 (7-12), and mouse Notch1 (EGF6-13)) were immobilized on individual flow cells at 5 μl/min using a streptavidin-coated sensor chip (Series S Sensor chip SA, GE Healthcare). Three-fold serial dilutions of recombinant DLL4 proteins (N-EGF5) starting at 50 μM (WT DLL4), 18 μM (DLL4.v2), and 6 μM (DLL4.v1 and Delta^MAX) were flowed over the chip at 25° C. in SPR buffer (20 mM HEPES pH 7.4, 150 mM NaCl, 1 mM calcium chloride, 0.1% BSA supplemented with 0.005% surfactant P20). Association (“on-rate”) and dissociation (“off-rate”) phases were performed at 10 μl/min for 120 seconds and 300 seconds, respectively. […] Data collection rate was performed at 10 Hz, and curves were reference-subtracted from a flow cell containing 100 RU of a negative control non-related protein (biotinylated mouse RNF43 PA domain). The maximum RU for each experiment was normalized to a value of 100% and plotted as a function of concentration using Prism 9 software (GraphPad). Steady-state binding and kinetic curves were fitted using the Biacore T200 evaluation software to a 1:1 Langmuir model to determine the KD values.
On the technique in general: Surface plasmon resonance follows binding to a sensor surface in real time, without labels.

In assay [2] the target is T2, hNotch3 (EGF5-12, residues 197-505), biotinylated (human, UniProt Q9UM47 197-505, Biotinylated in vitro by BirA at the C-terminal BAP-tag (tag not in the letters).).
T2 construct: Immobilised on a streptavidin chip for SPR
T2 sequence: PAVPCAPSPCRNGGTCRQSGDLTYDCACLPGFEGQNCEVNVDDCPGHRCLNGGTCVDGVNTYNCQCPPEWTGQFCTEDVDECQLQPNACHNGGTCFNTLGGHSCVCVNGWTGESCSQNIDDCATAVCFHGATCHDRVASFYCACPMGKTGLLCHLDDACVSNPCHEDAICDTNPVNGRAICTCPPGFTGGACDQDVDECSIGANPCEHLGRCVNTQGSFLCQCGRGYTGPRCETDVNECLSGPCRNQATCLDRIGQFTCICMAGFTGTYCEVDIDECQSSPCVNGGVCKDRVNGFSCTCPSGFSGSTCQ
Described as above. As to the method: as §1, §2

B1: Delta^MAX (N-EGF5), non-biotinylated (ligand)
chain: SSVFQLQLQEFINERGVLASGRPCEPGCRTFFRVCLKHFQAVVSPGPCTFGTVSTPVLGTNSFAVRDDSSGGGRNPLQLPLNFTWPGTFSLIIEAWHAPGDDLRPEALPPDALISKFAIQGSLAVGQNWLLDEQTSTLTRLRYSYRVICSDNYYGDNCSRLCKKRNDYFGHYVCQPDGNPSCLPGWTGEYCQQPICLSGCHEQNGYCSKPAECLCRPGWQGRLCNECIPHPGCRHGTCSTPWQCLCDEGWGGLYCDQDLNYCTHHSPCKNGATCRNSGPRSYTCTCRPGYTGVDCELELSECDSNPCRNGGSCKDQEDGYHCLCPPGYYGLHCEHSTLSCADSPCFNGGSCRERNQGANYACECPPNFTGSNCEHHHHHHHH
notes: also called DLL4^MAX; soluble Delta^MAX
In the case of B1, the Kd stood at 24 nM in assay [1] and 49 nM in assay [2].

In general, Kd refers to the concentration at which binding is half-saturated. Low values mean higher affinity, high ones lower affinity.
